For assay [1], the target named is T1, recombinant mouse Clec4F (CLEC4F/CLECSF13), soluble extracellular domain Ala65-Gly548 (Mus musculus, UniProt P70194).
Assay [2] addresses T1, recombinant mouse Clec4F …. As to the kind of experiment: SPR; Biacore T200; 400 RU of recombinant mouse Clec4F coupled to a CM5 chip; nanobodies flown at 30 ul/min at 1-400 nM; 1:1 binding model. To be noted: both partners purified. In general terms: SPR reads the build-up and loss of mass on a sensor chip optically.
Assay [3] has as its target T1, recombinant mouse Clec4F …. The assay is described as above. The conditions noted are these: both partners purified. The source holds these as a separate data set.

Changes are numbered by the printed parent chain. Where two headings read alike, the source gives them in different places.

B1: Nb 4.39 (VHH)
VHH: DVQLVESGGGLVQPGGSLRLSCAASGSNVDIATISWYRQGTGNQREFVAYITPRGNTLYGASVTGRFTISRDNAKNTVYLQMNSLRFDDTAVYYCNVARLGRNYWGQGTQVTVSS
On to B1, for which the binding result in assay [1] is listed as “binds”.

B2: Nb6.4 (VHH)
VHH: QVQLVESGGGLVQPGGSLTLSCAASGFTISNYAMKWDRQAPGKGFEWVSTINSDGDNTSYRDSVKGRFTISRDNAKNTLYLQMNSLKPEDTAVYYCSNGGRRGQGTQVTVSS
notes: also called R3-4; group G6; source: E. coli WK6 periplasm, purified (IMAC Ni-NTA, dialysis)
With B2, in assay [2], the Kd was 2 nM, the koff is 0.00231 s⁻¹ and the kon was determined as 1.16e+06 M⁻¹ s⁻¹.

B3: Nb6.19 (VHH)
VHH: DVQLVESGGGLVQPGGSLRLSCAASGFTLSTYAMRWVRQAPGKGLEWVSDINSGGDVMSYRDSVKGRFTISRDDAKNTLYLQMNSLKPEDTAVYYCTNGWSRGQGTQVTVSS
notes: also called R2-19; group G6; source: E. coli WK6 periplasm, purified (IMAC Ni-NTA, dialysis)
In the case of B3, in assay [2], the dissociation constant Kd was 0.47 nM, the off-rate (koff) is 0.000612 s⁻¹ and the on-rate (kon) came to 1.3e+06 M⁻¹ s⁻¹.

B4: Nb6.3 (VHH)
VHH: B3 VHH with D1Q, L29F, T31S, S53K, D56S, V57G, M58T, W100G
notes: also called R3-3; group G6; source: E. coli WK6 periplasm, purified (IMAC Ni-NTA, dialysis)
Turning to B4, in assay [2], the Kd is 0.296 nM, the off-rate constant (koff) was 0.000848 s⁻¹ and the kon stood at 2.87e+06 M⁻¹ s⁻¹.

B5: Nb12.75 (VHH)
VHH: QVQLVESGGGLVQAGGSLRLSCAASLRTFSNAMGWFRQAPGKEREFVAVITWSGRVTNYSDSVKGRFTISKDNAKNTMYLQMNSLKLEDTAVYFCARESTFATANPKDYAYWGQGTQVTVSS
notes: also called R2-75; group G12; source: E. coli WK6 periplasm, purified (IMAC Ni-NTA, dialysis)
Turning to B5, the binding result in assay [3] is reported as “binds”.

B6: Nb6.18 (VHH)
VHH: DVQLGESGGGLVQPGGSLRLSCAASGFTFSSYAMRWVRQAPGKALEWVADINSSGAYTNYRDSVTGRFIISRDNVKNTLYLQMDNMKPEDTAVYYCTTGGQRGQGTQVTVSS
notes: also called R3-18; group G6; source: E. coli WK6 periplasm, purified (IMAC Ni-NTA, dialysis)
With B6, in assay [2], the equilibrium dissociation constant (Kd) was 0.51 nM, the dissociation rate constant (koff) came to 0.000756 s⁻¹ and the on-rate (kon) worked out at 1.48e+06 M⁻¹ s⁻¹.

B7: Nb5.10 (VHH)
VHH: QVQLVESGGGLVQPGGSLRLSCAANVSSFRFAAMGWYRQVQGKRRELVATITRDGVSNYVEPMKGRFTISRDNGKNTVYLQMNHLQPEDTAVYYCAAKISPFGGTWTPDYWGQGTQVTVSS
notes: also called R3-10; group G5; source: E. coli WK6 periplasm, purified (IMAC Ni-NTA, dialysis)
B7: in assay [3], the binding result was “binds”.

B8: Nb9.15 (VHH)
VHH: QVQLVESGGGLVQPGGSLRLSCAASGFSLASRTIAWFRQAPGKEREGVSCISRSGAFTNNADSVKGRFTISRDNAKNTVYLQMNSLKPEDTADYYCAVTSSWYSTCLRESIYDSWGQGTQVTVSS
notes: also called R3-15; group G9; source: E. coli WK6 periplasm, purified (IMAC Ni-NTA, dialysis)
B8: in assay [2], the equilibrium dissociation constant (Kd) was 26.7 nM, the koff was 0.0317 s⁻¹ and the on-rate constant (kon) came to 1.19e+06 M⁻¹ s⁻¹.

B9: Nb13.12 (VHH)
VHH: QVQLVESGGGLVQDEGSLRLSCAASGLIFSNYIVGWFRQTPGKEREFVAAIRWGGTSSYYSDSVKGRFTVSRDNAKNTLYLQMNNLKPEDTAVYYCATGPYYRGDYRVPDNMDYWGKGTQVTVSS
notes: also called R3-12; group G13; source: E. coli WK6 periplasm, purified (IMAC Ni-NTA, dialysis)
Turning to B9, in assay [2], the Kd worked out at 1.11 nM, the koff was 0.0031 s⁻¹ and the kon was 2.79e+06 M⁻¹ s⁻¹.

B10: Nb8.37 (VHH)
VHH: QVQLVESGGGLVQPGGSLRLSCAASGLTLDYLRIAWFRQAPGKKRERVSCISITEGSANYADSVKGRFTISRDNAKNTVFLQMNSLKPEDTAVYYCAARRYYCSGTPTDYAYWGQGTQVTVSS
notes: Labelled with 99mTc through its His tag for the biodistribution test only; also called R3-37; group G8; source: E. coli WK6 periplasm, purified (IMAC Ni-NTA, dialysis; size exclusion chromatography for the later tests); not shown: His6, C-terminal, kept
Turning to B10, in assay [2], the dissociation constant (Kd) amounted to 0.79 nM, the koff came to 0.00124 s⁻¹ and the kon came out at 1.57e+06 M⁻¹ s⁻¹.

B11: Nb2.22 (VHH)
VHH: QVQLVESGGGLVQAGGSLRLSCAASGATFITYGMTWFRQAPGKEREFVAAVTGNGAGTTYLPSVKGRFTISRDNAKNTVYLQMSSLKPEDTAVYYCGGRRWVPATAVDQVAYWGQGTQVTVSS
notes: Labelled with 99mTc through its His tag for the biodistribution test only; also called R3-22; group G2; source: E. coli WK6 periplasm, purified (IMAC Ni-NTA, dialysis; size exclusion chromatography for the later tests); not shown: His6, C-terminal, kept
Turning to B11, in assay [2], the Kd turned out to be 0.269 nM, the koff was 0.00221 s⁻¹ and the kon is 8.24e+06 M⁻¹ s⁻¹.

B12: Nb 7.24 (VHH)
VHH: QVQLVESGGGLVQPGGSLRLSCAASGFTLDYYAIGWFRQAPGKEREGVSCIASDGGSTKYADSVKGRFTISRDSAKNTVYLQMNSLKPEDTAIYYCAAGRPGYCSGYALKEIYPYRDWGQGTQVTVSS
Take B12: the binding result in assay [1] is recorded as “binds”.

B13: Nb11.16 (VHH)
VHH: QVQLVESGGGLVQAGGSLRLSCVASGGTFSNYRMAWFRQAPGKEREFVSLITRSGGSTYYADSVKGRFTISRDNAKNTVSLQMNTLKPEDTAVYTCAATPRFDSYSNYIRTNGYDYWGQGTQVTVSS
notes: also called R3-16; group G11; source: E. coli WK6 periplasm, purified (IMAC Ni-NTA, dialysis)
In the case of B13, in assay [2], the dissociation constant Kd was 0.169 nM, the koff amounted to 0.00392 s⁻¹ and the on-rate (kon) was 2.32e+07 M⁻¹ s⁻¹.

B14: Nb11.28 (VHH)
VHH: B13 VHH with G16A, V23A, K76Q, Y105G, N107Y, I109T
notes: also called R3-28; group G11; source: E. coli WK6 periplasm, purified (IMAC Ni-NTA, dialysis)
With B14, in assay [2], the Kd amounted to 1.2 nM, the koff was 0.00654 s⁻¹ and the on-rate constant (kon) was determined as 5.43e+06 M⁻¹ s⁻¹.

B15: Nb11.20 (VHH)
VHH: QVQLVESGGGLVQTGGSLRLSCAASGRTVSSYRMGWFRQAPGKEREFVCMITRSGFKTYCNDSVKGRFTISRDVAVNTVNLQMNSLKPEDTADYYCAATERWGTTATMTTANDYDYWGQGTQVTVSS
notes: also called R2-20; group G11; source: E. coli WK6 periplasm, purified (IMAC Ni-NTA, dialysis)
Regarding B15, in assay [2], the Kd came out at 0.403 nM, the koff worked out at 0.00139 s⁻¹ and the kon came out at 3.46e+06 M⁻¹ s⁻¹.

B16: Nb 10.63 (VHH)
VHH: QVQLVESGGGLVQAGGSLRLSCAASGRTFSDYNMGWFRQAPGKEREFVATISRSGAGTYYTDSVKGRFTISRDNAKNTVYLQMNNLKPEDSAAYYCAATLRVALSTITVGGYDYWGQGTQVTVSS
B16: the binding result in assay [1] is on record as “binds”.

B17: Nb10.66 (VHH)
VHH: B16 VHH with Q1D, A56G, T61S, D113N
notes: also called R2-66; group G10; source: E. coli WK6 periplasm, purified (IMAC Ni-NTA, dialysis)
Turning to B17, in assay [2], the Kd was found to be 0.314 nM, the koff was 0.00135 s⁻¹ and the on-rate (kon) was 4.28e+06 M⁻¹ s⁻¹.

B18: Nb10.17 (VHH)
VHH: B16 VHH with S30D, D31S, V79M, Y114I
notes: also called R3-17; group G10; source: E. coli WK6 periplasm, purified (IMAC Ni-NTA, dialysis)
In the case of B18, in assay [2], the Kd is 0.174 nM, the off-rate (koff) amounted to 0.00158 s⁻¹ and the kon turned out to be 9.08e+06 M⁻¹ s⁻¹.

B19: Nb10.21 (VHH)
VHH: B16 VHH with D31S, S54N, L100Q, D113E
notes: also called R2-21; group G10; source: E. coli WK6 periplasm, purified (IMAC Ni-NTA, dialysis)
Take B19: in assay [2], the dissociation constant Kd was 0.484 nM, the koff is 0.00223 s⁻¹ and the kon is 4.62e+06 M⁻¹ s⁻¹.

B20: Nb10.16 (VHH)
VHH: B16 VHH with Q1D, Q13E, A14P, S54N, T58S
notes: Labelled with 99mTc through its His tag for the biodistribution test only; also called R2-16; group G10; source: E. coli WK6 periplasm, purified (IMAC Ni-NTA, dialysis; size exclusion chromatography for the later tests); not shown: His6, C-terminal, kept
Consider B20, for which, in assay [2], the Kd is 0.524 nM, the off-rate (koff) came to 0.000825 s⁻¹ and the kon was 1.58e+06 M⁻¹ s⁻¹.

What is called Kd is the free concentration of one partner at which half of the binding sites on the other are occupied at equilibrium, for simple one-to-one binding. By koff is commonly meant the first-order rate constant of dissociation. Broadly, the kon is a measure of how fast the partners come together.

The record behind these values is PMC7937711, “Development and Characterization of Nanobodies Targeting the Kupffer Cell” (Frontiers in Immunology, 2021).
